Measurements published in patent publication US20160282364.

Test system: insulin

recombinant human IDE42-1019 (R&D Systems)
degradation of insulin by IDE (HTRF insulin assay, 0.4 µg/mL IDE, 10 ng/mL insulin, 30° C., 15 min): ˜75% degradation of insulin
